Source: patent publication US20220242937A1 (CHANGCHUN GENESCIENCE PHARMACEUTICAL, published 2022)
Positions count from the first letter of the chain named.

B1: 066-4.26.14 (antibody, V domains shown)
VH: EVKLVESGGGLVKPGGSLKLSCAASGFTFRSYAMSWVRQTPEKRLEWVASISTTSNTYYPDSVKGRFTTSRDNARNIVYLQMSSLRSDDTAMYYCGRGVITNQAWFAYWGQGTLVTVSA
VL: DIVLTQSPATLSVTPGDSVSLSCRASQSISNNLHWYQQKSHESPRLLIKYASQSISGIPSRFSGSGSGTDFTLSVNNVGTEDFGMYFCQQSNSWPLTFGAGTKLELK
B2: mouse-human chimeric antibody 066-4.26.14-chAb (antibody, human IgG1, kappa, V domains shown)
VH: B1 VH
VL: DIVLTQSPATLSVTPGDSVSLSCRASQSISNNLHWYQQKSHESPRLLIKYASQSISGIPSRFSGSGSGTDFTLSVNNVGTEDFGMYFCQQSNSWPLTFGAGTKLELKR
B3: 066-4.26.14H5L2 (antibody, V domains shown)
VH: EVQLVESGGGLVQPGGSLRLSCVASGFTFRSYAMSWVRQAPGKGLEWVASISTTSNTYYPDSVKGRFTTSRDNSKNTVYLQMSSLRAEDTAVYYCGRGVITNQAWFAYWGQGTLVTVSS
VL: DIVLTQSPATLSVSPGERATLSCRASQSISNNLHWYQQKPGQAPRLLIKYASQSISGIPARFSGSGSGTDFTLTISSLQSEDFAVYFCQQSNSWPLTFGGGTKVEIK
B4: 066-4.26.14H2L2 (antibody, V domains shown)
VH: B3 VH with Q13K, V23A, A40T, G42E, G44R, S74A, T77S, L114T
VL: B3 VL
B5: 066-4.26.14H4L2 (antibody, V domains shown)
VH: B3 VH with V23A, S74A, T77S, A87D, V92M, T113I
VL: B3 VL
B6: 066-4.26.14H5L1 (antibody, V domains shown)
VH: B3 VH
VL: B3 VL with A19V, P40S, A60S, K103Q
B7: 066-4.26.14H2L3 (antibody, V domains shown)
VH: B3 VH with Q13K, V23A, A40T, G42E, G44R, S74A, T77S, L114T
VL: DIVLTQSPDFQSVTPKEKVTISCRASQSISNNLHWYQQKPDQSPKLLIKYASQSISGIPSRFSGSGSGTDFTLTINSLEAEDAAAYFCQQSNSWPLTFGPGTKVEIK
B8: 066-4.26.14H5L3 (antibody, V domains shown)
VH: B3 VH
VL: B7 VL

What follows are binders tested against human Aβ antigen (human) (assay: cell-based or functional assay).
human Aβ antigen (human), sequence (peptide, as listed by the source): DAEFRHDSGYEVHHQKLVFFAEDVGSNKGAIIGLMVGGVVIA

Binder | relative fluorescence intensity (ThT, Aβ polymerization; hIgG = 1.00) | relative value of LDH release (SHSY5Y cells with Aβ; hIgG = 1.00)
B1 | 0.7 | 1.2
B2 | 0.71 | 1.32
B3 | 0.67 | 1.26
B4 | 0.62 | 1.41
B5 | 0.7 | 1.3
B6 | 0.68 | 1.37
B7 | 0.67 | 1.42
B8 | 0.78 | 1.41
